Results on 40 sequences are retold here after the nanobody polyreactivity screen of Harvey et al. (2022).

A short description of this data set: yeast display, Sf9 membrane polyspecificity reagent, FACS + sequencing; frameworks hold sequencing errors. In short, it runs like this: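 Sorting gates, low and high (top ~1%), were placed on anti-HA fluorescence to track expression and on streptavidin fluorescence to track reagent binding. A clone's polyreactivity label is taken from the gate it came out of. The reagent was 10% biotinylated, detergent-solubilized Sf9 membrane, applied for 1 hour at 4 °C to galactose-induced yeast display cells.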
Take “QVQLVESGGGLVQAGGSLRLSCAASGSIFRIYAMGWYRQAPGKERELVAGISKSGGSTYYADSVKGRFTISRDNAKNTVYLQMNSLKPEDTAVYYCAAGYYYFWTYDYWGQGTQVTVSS”: the “polyreactivity (PSR sort gate)” value is on record as “low polyreactivity”. As to “QVQLVESGGGLVQAGGSLRLSCAASGSIFRKNAMGWYRQAPGKERELVAAITGTGRTTYADSEKGRFTISRDNAKNTVYLQMNSLKPEDTAVYYCAADVNYYQHRLYYWGQGTQVSVSS”, the “polyreactivity (PSR sort gate)” value is on record as “low polyreactivity”. As for “QVQLVESGGGLVQAGGSLRLSCAASGSIFRKYTMGWYRQAPGKERELVAAISGTAGRTYYADSVKGRFTISRDNAKNTVYLQMNSLKPEDTAVYYCAARRFGGYGYNYWGQGTQVTVSS”, the entry is “high polyreactivity”.

“QVQLVESGGGLVQAGGSLRLSCAASGSIFRLYALGWYRQAPGKERELVAAISRRGGSTNYADSVKGRFTISRDNAKNTVYFQMNSLKPEDTAVYYCARDVDTHYPYAYDYWGQGTQVTVSS”: the “polyreactivity (PSR sort gate)” value is “high polyreactivity”. Consider “QVQLVESGGGLVQAGGSLRLSCAASGSIFRNYAMGWYRQAPGKERELVAAITSIGGGTYYADSVKGRFTISRDNAKNTVYLQMNSLKPEDTAVYYCAAVSGPFVQTSGNGEYDYWGQGTQVTVSS”, for which the “polyreactivity (PSR sort gate)” value is “low polyreactivity”.

On to “QVQLVESGGGLVQAGGSLRLSCAASGSIFRPNTMGWYRQAPGKERELVAAINWSGDDTYYADSVKGRFTISRDNAKNTVYLQMNSLKPEDTAVYYCAVDLFDGVTKLNYDYWGQGTQVTVSS”, for which the “polyreactivity (PSR sort gate)” value is “low polyreactivity”. As for “QVQLVESGGGLVQAGGSLRLSCAASGSIFRPNVMGWYRQAPGKERELVAAITGSGGSTYYADSVKGRFTISRDNAKNTVYLQMNSLKPEDTAVYYCNARTVSRGRYTYDYWGQGTQVTVSS”, the entry is “low polyreactivity”. As for “QVQLVESGGGLVQAGGSLRLSCAASGSIFRPYAMGWYRQAPGKEREFVAAITYGGGNTYYADSVKGRFTISRDNAKNTFYLQMNILKPEDTAVYYCNKLSRGFSPKYDYWGQGTQVTVSS”, the entry is “high polyreactivity”.

Consider “QVQLVESGGGLVQAGGSLRLSCAASGSIFRPYAMGWYRQAPGKERELVAGITWGGSRTYYADSVKGRFTISRDNAKNTVYLQMNSLKPEDTAVYYCAAYPSTNGYIYYYWGQGSQVTVSS”, for which the “polyreactivity (PSR sort gate)” value is “high polyreactivity”.

Take “QVQLVESGGGLVQAGGSLRLSCAASGSIFRPYAMGWYRQAPGKERELVATINQSGSSTYYADSVKGRFTISRDNAKNTVYLQKNSLKPEDTAVYYCAVVYTYHGYTYDYWGQGTQVTVSS”: the “polyreactivity (PSR sort gate)” value is “low polyreactivity”. As for “QVQLVESGGGLVQAGGSLRLSCAASGSIFRQYAMGWYRQAPGKERELVAAINYSGGNTYYADSVKGRFTISRDNAKNTVYLQMNSLKPEDTAVYYCAADSVRHFWWAYYYWGQGTQVTVSS”, the entry is “low polyreactivity”; as for “QVQLVESGGGLVQAGGSLRLSCAASGSIFRRNAMGWYRQAPGKDRELVAAITTRGSRTTYADSVKGRFTISRDNAKNTVYLQMNSMKPEDTAVYYCAARQHFSYSFHVAYDYWGQGTQVTVSS”, “high polyreactivity”; as for “QVQLVESGGGLVQAGGSLRLSCAASGSIFRRYAMGGYRQAPGKERELVAAITSGDTTKYADSVKGRFTISRDNAKNTVYLQMNSLKPEDTAVYYCNKKGWPRFVHGFLRRDDYWGQGTQVTVSS”, “low polyreactivity”. Under “QVQLVESGGGLVQAGGSLRLSCAASGSIFRRYAMGWYRHAPGKEREFVAAITRSGGGTYYADSVKGRFTISRDNAKNTVSLQMNSLKPEDTAVYFCAKDVFVQRSRYPEGDYWGQGTQVTVSS” stands “high polyreactivity”; under “QVQLVESGGGLVQAGGSLRLSCAASGSIFRRYAMGWYRKAPGKERELVAGISRGGGITYYADSVKGRFTISRDNAKNTVYLQMNSLKPEDTAVYYCAARIGATYWVDWTHRAYDYWGQGTQVTVSS”, “high polyreactivity”; under “QVQLVESGGGLVQAGGSLRLSCAASGSIFRRYAMGWYRQAPGKERELVAAISFSGGSTYYADSVKGRFTISRDNAKNTVYLQMNSLKPEDTAVYYCAARSYAYSGDYWGQGTQVNVSS”, “high polyreactivity”. On to “QVQLVESGGGLVQAGGSLRLSCAASGSIFRRYAMGWYRQAPGKERELVAAISGSAGSTYYADSVKGRFTISRDNAKNTVYLQMNSLKPEDTAVYYCAADPDDGYDYWGQVTQVTVSS”, for which the “polyreactivity (PSR sort gate)” value is recorded as “low polyreactivity”. Under “QVQLVESGGGLVQAGGSLRLSCAASGSIFRRYTMGWYRQAPGKERELVAAISRVGNTNYADSVKGRFTISRDNAKNTVYLQMNSLKPEDTAVYYCAARAIGYRYTPGLNYWGQGTQVTVSS” stands “high polyreactivity”; under “QVQLVESGGGLVQAGGSLRLSCAASGSIFRRYVMGWYRQAPGKERELVASISSNGTSTYYADSVKGRFTISRDNSKNTVYLQMNSLKPEDTAVYYCNVDIFDPRTYDYWGQGTQVTVSS”, “low polyreactivity”.

Consider “QVQLVESGGGLVQAGGSLRLSCAASGSIFRSNTMGWYRQAPGKERELVASITRGGSTNYADSVKGRFTISRDNAKNTVYLQMNSLKPEDTAVYYCIARRTVRYYFSYGYWGQGTQVTVSS”, for which the “polyreactivity (PSR sort gate)” value was “high polyreactivity”. In the case of “QVQLVESGGGLVQAGGSLRLSCAASGSIFRSYAMGWYRQAPGKERELVAAIRSDGRTNYADSVKGRFTISRDNAKNTVYLQMNSLKPEDTAVYYCAAKAYYSYWRSMDYWGQGTQVTVSS”, the “polyreactivity (PSR sort gate)” value was “low polyreactivity”. Under “QVQLVESGGGLVQAGGSLRLSCAASGSIFRSYAMGWYRQAPGKERELVAAISRRGGSTYYADSVKGRFTISRDNAKNTVYLQMNSLKPEDTAVYYCAADRTGPYDYWGQGTQVTVSS” stands “high polyreactivity”; under “QVQLVESGGGLVQAGGSLRLSCAASGSIFRSYAMGWYRQAPGKERELVAAISSRSGSTYYADSVKGRFTISRDNAKNTVYLQMISLKPEDTAVYYCAAQHRHSYGYWGQGTQVTVSS”, “high polyreactivity”; under “QVQLVESGGGLVQAGGSLRLSCAASGSIFRSYAMGWYRQAPGKERELVAAISSSSGSTYYADSVKGRFTISRDNAKNTVYLQMNSLKPEDTAVYYCAARSRIGNNGYEYWGQGTQVTVSS”, “low polyreactivity”.

With “QVQLVESGGGLVQAGGSLRLSCAASGSIFRSYAMGWYRQAPGKERELVAAITFSGGRTYYADSVKGRFTISRDNAKNTVYLQMNSLKPEDTGVYYCNARHRNLAEYDYWGQGTQVTVSS”, the “polyreactivity (PSR sort gate)” value is reported as “low polyreactivity”. “QVQLVESGGGLVQAGGSLRLSCAASGSIFRSYAMGWYRQAPGKERELVASISRRGGSTYYADSVKGRFTISRDNAKNTVYLQMNSLKLEDTAVYYCAAVRYNSRVSTTPSEMYYWGQGTQVTVSS”: the “polyreactivity (PSR sort gate)” value is reported as “low polyreactivity”. Under “QVQLVESGGGLVQAGGSLRLSCAASGSIFRSYAMGWYRQAPGKERQLVARISKRGGSTYYADSVKGRFTISRENAKNTVYLQMNSLKPEDSAVYYCNASYFRYRYNRYVYWGQGTQVTVSS” stands “high polyreactivity”; under “QVQLVESGGGLVQAGGSLRLSCAASGSIFRSYAMGWYRQAPGNERELVAALSGRGSNTYYADSVKGRFTISRDNAKNTVYLQMNSLKPEDTAVYYGATRRHYGSTRSYDYWGQGTQVTVSS”, “high polyreactivity”.

As for “QVQLVESGGGLVQAGGSLRLSCAASGSIFRSYAMGWYSPSPGKERELVAAITRSGGSTYYADSVKGRFTISRDNAKNTVYLQMNSLKPEDTAVYYCAAEYYSYTWGWGHGYWGQGTQVTVSS”, the “polyreactivity (PSR sort gate)” value is listed as “high polyreactivity”. As for “QVQLVESGGGLVQAGGSLRLSCAASGSIFRTYVMGWYRQAPGKERELVATIDSTSGSTYYADSVKGRFTISRDNAKNTVYLQMNSLKPEDTAVYYCNVLVYYYYVVKSTYRWYDYWGQGTQVTVSS”, the entry is “high polyreactivity”. As for “QVQLVESGGGLVQAGGSLRLSCAASGSIFRVYAMGWYRQAPGKERELVAAIRSGGGTNYADSVKGRFTISRDNAKITVYLQMNSLKPEDTAVYYCAREAATDISPGYDYWGQGTQVTVSS”, the “polyreactivity (PSR sort gate)” value is given as “low polyreactivity”. As for “QVQLVESGGGLVQAGGSLRLSCAASGSIFRVYAMGWYRQAPGKERELVAAISSIVGSTYYADSVKGRFTISRDNAKNTVYLQMNSLKPADTAVYYCNKDGTWPRTGSEYDYWGQGTQVTVSS”, the entry is “low polyreactivity”; as for “QVQLVESGGGLVQAGGSLRLSCAASGSIFRVYAMGWYRQAPGKERELVAAISVSGGSTNYADSVKGRFTISRDNAKNTVYLQMNSLKPEDTAVYYCNRKQQVSSELDYWGQGTQVTVSS”, “low polyreactivity”. Under “QVQLVESGGGLVQAGGSLRLSCAASGSIFRVYAMGWYRQAPGKERELVASISRRGGSTYYADSVKGRFTISRDNAKKTVYLQMNSLKPEETAVYYFAAEFVIGGHGYDYWGQGTQVTVSS” stands “high polyreactivity”; under “QVQLVESGGGLVQAGGSLRLSCAASGSIFRVYMGWYRQAPGKERELVATIRWSSGSTYYADSVKGRFTISRDNAKNTVYLQMNSLKPEDTAVYYCAVKGPYYDDYDYWGQGTQVTVSS”, “low polyreactivity”; under “QVQLVESGGGLVQAGGSLRLSCAASGSIFRWNAMGWYRQAPGKERELVAAIDSGGSTYADSVKGRFTISRDNAKNTVYLQMNSLKPEDTAVYYCAAEIPDEWPYDYWGQGTQVTVSS”, “low polyreactivity”. Under “QVQLVESGGGLVQAGGSLRLSCAASGSIFRWNAMGWYRQAPGKERELVAAITWRSSSTYYADSVKGRFTISRDNAKNTVYLQMNSLKPEDTAVYYCNAKRGVQTYANFYGSKYDYWGQGTQVTVSS” stands “high polyreactivity”; under “QVQLVESGGGLVQAGGSLRLSCAASGSIFRWYAMGWYRQAPGKERELVAAITWSASRTYYADSVKGRFTISRDNAKNTVYLQMNSLKPEDTAVYYCAKRGWSSVYFHGGFGYKLYDYWGQGTQVTVSS”, “low polyreactivity”; under “QVQLVESGGGLVQAGGSLRLSCAASGSIFRWYAMGWYRQAPGKERELVASITRSGGRTYYADSVKGRFTISRDNAKNTVYLQMNSLKPEDTAVYYCAADYYAYWYRYRYYYWGQGTQVTVSS”, “high polyreactivity”.

As to “QVQLVESGGGLVQAGGSLRLSCAASGSIFRWYDMGWYRQAPGKERELVAVISKRGGSTYYADSVKGRFSISRDNAKNTVYLQMTSLKPEDTAVYSCAKRYERWQLARLDYWGQGTQVTVSS”, the “polyreactivity (PSR sort gate)” value is listed as “high polyreactivity”.
